Experimental data reported in publication PMC5814829.
Like-named read-outs stand apart in the source and are kept apart here.

Legend:
Experiment in all cases: fluorescence anisotropy
ScPif1p (237-780) [1] = target: T1, ScPif1p (237-780) (Saccharomyces cerevisiae, UniProt P07271 237-780)
T1 sequence: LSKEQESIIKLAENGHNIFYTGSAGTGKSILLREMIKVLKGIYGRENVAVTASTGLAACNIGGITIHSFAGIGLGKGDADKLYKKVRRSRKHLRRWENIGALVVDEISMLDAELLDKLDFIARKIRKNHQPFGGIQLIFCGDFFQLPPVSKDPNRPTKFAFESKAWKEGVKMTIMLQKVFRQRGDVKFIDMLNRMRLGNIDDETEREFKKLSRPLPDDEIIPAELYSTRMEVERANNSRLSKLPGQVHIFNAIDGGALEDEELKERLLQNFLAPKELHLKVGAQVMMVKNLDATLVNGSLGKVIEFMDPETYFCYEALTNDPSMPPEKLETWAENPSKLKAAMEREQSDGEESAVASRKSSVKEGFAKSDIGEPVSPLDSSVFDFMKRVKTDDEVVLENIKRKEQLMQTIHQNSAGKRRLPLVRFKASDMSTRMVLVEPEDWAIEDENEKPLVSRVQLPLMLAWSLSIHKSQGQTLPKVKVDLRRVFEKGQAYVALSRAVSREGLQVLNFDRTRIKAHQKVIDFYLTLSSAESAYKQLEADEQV

ScPif1p E681G = target: T2, ScPif1p E681G (Saccharomyces cerevisiae, UniProt P07271 237-780, E681G)
T2 sequence: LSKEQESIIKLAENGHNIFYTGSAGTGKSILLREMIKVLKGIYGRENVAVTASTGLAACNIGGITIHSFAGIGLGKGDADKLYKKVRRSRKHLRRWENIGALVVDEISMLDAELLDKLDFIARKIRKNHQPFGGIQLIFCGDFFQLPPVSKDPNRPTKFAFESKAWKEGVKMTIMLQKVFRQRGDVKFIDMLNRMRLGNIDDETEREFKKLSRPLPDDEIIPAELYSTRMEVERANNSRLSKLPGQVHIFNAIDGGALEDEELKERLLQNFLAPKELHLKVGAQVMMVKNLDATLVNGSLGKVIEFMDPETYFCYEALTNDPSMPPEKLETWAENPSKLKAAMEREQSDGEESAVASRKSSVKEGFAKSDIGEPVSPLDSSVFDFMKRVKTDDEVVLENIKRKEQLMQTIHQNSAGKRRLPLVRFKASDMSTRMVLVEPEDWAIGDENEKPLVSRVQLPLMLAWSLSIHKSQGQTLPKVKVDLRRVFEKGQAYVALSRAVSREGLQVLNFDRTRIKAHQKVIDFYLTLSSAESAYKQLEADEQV

ScPif1p DM = target: T3, ScPif1p DM (Saccharomyces cerevisiae, UniProt P07271 237-780, E242A;K273A;R281A)
T3 sequence: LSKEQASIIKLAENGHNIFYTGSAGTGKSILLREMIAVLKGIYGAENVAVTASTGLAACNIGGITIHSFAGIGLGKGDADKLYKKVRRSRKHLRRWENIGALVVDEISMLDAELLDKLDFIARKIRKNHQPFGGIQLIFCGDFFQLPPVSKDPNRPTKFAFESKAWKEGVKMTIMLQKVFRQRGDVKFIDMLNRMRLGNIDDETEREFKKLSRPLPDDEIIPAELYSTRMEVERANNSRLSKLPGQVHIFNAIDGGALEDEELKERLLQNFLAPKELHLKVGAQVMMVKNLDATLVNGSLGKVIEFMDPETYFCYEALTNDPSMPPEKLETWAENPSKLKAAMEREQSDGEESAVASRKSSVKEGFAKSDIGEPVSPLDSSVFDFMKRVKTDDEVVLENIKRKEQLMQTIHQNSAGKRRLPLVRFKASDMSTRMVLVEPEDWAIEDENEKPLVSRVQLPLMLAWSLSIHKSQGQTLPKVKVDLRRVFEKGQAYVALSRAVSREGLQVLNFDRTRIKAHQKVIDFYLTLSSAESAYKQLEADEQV

ScPif1p (237-780) [2] = target: T1, ScPif1p (237-780); remark: listed apart in the source
ScPif1p R323A = target: T4, ScPif1p R323A (Saccharomyces cerevisiae, UniProt P07271 237-780, R323A)
T4 sequence: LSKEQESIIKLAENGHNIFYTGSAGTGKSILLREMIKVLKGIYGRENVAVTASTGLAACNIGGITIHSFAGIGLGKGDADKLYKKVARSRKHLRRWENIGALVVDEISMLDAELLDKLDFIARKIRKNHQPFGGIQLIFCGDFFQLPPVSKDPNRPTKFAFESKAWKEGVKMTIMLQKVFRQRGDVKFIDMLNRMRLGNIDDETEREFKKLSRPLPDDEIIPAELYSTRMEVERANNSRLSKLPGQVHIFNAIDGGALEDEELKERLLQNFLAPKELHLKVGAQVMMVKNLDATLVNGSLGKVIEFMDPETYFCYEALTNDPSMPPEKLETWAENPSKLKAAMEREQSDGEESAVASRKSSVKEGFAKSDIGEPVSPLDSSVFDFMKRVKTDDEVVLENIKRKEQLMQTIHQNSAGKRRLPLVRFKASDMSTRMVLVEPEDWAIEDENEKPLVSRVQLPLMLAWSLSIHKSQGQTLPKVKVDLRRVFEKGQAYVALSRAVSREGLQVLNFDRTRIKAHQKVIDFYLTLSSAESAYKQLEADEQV

ScPif1p (237-780) [3] = target: T1, ScPif1p (237-780); remark: listed apart in the source

Binder: GTGTGTGTGGTG (ssDNA) [GR12]
- Kd (ScPif1p (237-780) [1]): 7.8 nM
- Kd (ScPif1p E681G): 12.4 ± 3.9 nM
- Kd (ScPif1p DM): 13.4 ± 0.8 nM
- Kd (ScPif1p (237-780) [2]): 11.2 ± 2.1 nM
- Kd (ScPif1p R323A): 9.9 ± 0.4 nM

Binder: AGGGTGGGTGGGTGGGT (structured_DNA) [F-G417]
- Kd (ScPif1p E681G): 76.5 ± 10.5 nM
- Kd (ScPif1p DM): 23.8 ± 2.5 nM
- Kd (ScPif1p R323A): 25.1 ± 1.4 nM
- Kd (ScPif1p (237-780) [3]): 25 ± 5.1 nM

B1: dsDNA16bp (dsDNA)
DNA 1: CTCTGCTCGACGGATT
DNA 2: AATCCGTCGAGCAGAG
- Kd (ScPif1p E681G): 56.1 ± 11.6 nM
- Kd (ScPif1p DM): 95.5 ± 8.5 nM
- Kd (ScPif1p (237-780) [2]): 81.3 ± 10.3 nM
- Kd (ScPif1p R323A): 100 ± 5.1 nM
